Measured values from article PMC12771579, “Distinct classes of gut bacterial molybdenum-dependent enzymes produce urolithins” (Proceedings of the National Academy of Sciences of the …, 2025).
Each block holds one compound with its values, some of them ahead of it.

Experiments:
Experiment in all cases: continuous absorbance assay, methyl viologen, initial rates
Conditions in all cases: 200 µM methyl viologen, 100 µM sodium dithionite, 20 mM MOPS, 300 mM NaCl, pH 7.0, 30 °C, anaerobic
Eadh3 = tested on: T1, Eadh3; assay type: biochemical, Ellagibacter isourolithinifaciens
T1 construct: recombinant, expressed in G. urolithinfaciens, purified; bis-MGD enzyme without signal peptide; tag only in SI
Description: continuous absorbance assay, methyl viologen, initial rates on Eadh3 | Eadh3 converted urolithin C to isourolithin A via C8-OH dehydroxylation | urolithin M6 was metabolized more readily by Eadh2 than by Eadh3

[1] = tested on: T2, O=c1oc2c(O)c(O)ccc2c2c(O)c(O)c(O)cc12; assay type: biochemical, Gordonibacter urolithinfaciens
T2 construct: recombinant, cumate-inducible expression in G. urolithinfaciens (called native host), purified anaerobically; bis-MGD enzyme without signal peptide; tag only in SI

[2] = tested on: T3, O=c1oc2cc(O)ccc2c2c(O)c(O)c(O)cc12; assay type: biochemical, Gordonibacter urolithinfaciens
T3 construct: recombinant, cumate-inducible expression in G. urolithinfaciens (called native host), purified anaerobically; bis-MGD enzyme without signal peptide; tag only in SI

[3] = tested on: T2, O=c1oc2c(O)c(O)ccc2c2c(O)c(O)c(O)cc12; assay type: biochemical, Gordonibacter urolithinfaciens; remark: listed apart in the source
Description: continuous absorbance assay, methyl viologen, initial rates on Eadh1 | Eadh1 (C4-OH dehydroxylation of urolithin M5 to urolithin M6) | can accept urolithin D as a substrate to produce urolithin C

Km (Eadh3): 78.4 ± 10.6 µM
Compound: O=c1oc2cc(O)ccc2c2c(O)c(O)c(O)cc12 [urolithin M6]

Compound: Eadh2 (Gordonibacter sp. 28C)
Km [1]: 34.1 ± 6.4 µM
kcat [1]: 0.42 ± 0.02 s⁻¹
Km [2]: 13.8 ± 2.9 µM
kcat [2]: 0.65 ± 0.03 s⁻¹

Km (Eadh3): 19.9 ± 2.1 µM
Compound: O=c1oc2cc(O)ccc2c2cc(O)c(O)cc12 [urolithin C]

Compound: Eadh1 (Gordonibacter sp. 28C)
Km [3]: 11.8 ± 2.5 µM
kcat [3]: 8.60 ± 0.49 s⁻¹
